In patent publication US20240166737A1 (Janssen / Centocor, published 2024):
Blank lines part the entries; values can stand above or below the binder they belong to.

Columns and labels:
[1] = target: T1, 14 AA stub (a.a. 290-303 of SEQ ID NO: 247) (human); test: SPR, mAb captured, peptide injected
T1 peptide: GYLVLDLSMQEALS
Protocol: (§1) The binding was assessed by SPR. Briefly, GAH-Fc was used to capture mAbs on C4 sensor chip followed by antigen injection starting at 30 nM (14 amino acid stub), 100 nM (10-13 amino acid stubs), or 1000 nM (7-9 amino acid stubs) progressing in a 3-fold dilution series in single cycle kinetics mode. HBSP+0.01% BSA was used in the assay.

[2] = target: T2, 13 AA stub (a.a. 291-303 of SEQ ID NO: 247) (human); test: SPR, mAb captured, peptide injected
T2 peptide: YLVLDLSMQEALS
Protocol: as §1

[3] = target: T3, 12 AA stub region peptide LVLDLSMQEALS (human); test: SPR, mAb captured, peptide injected
T3 construct: free N-terminus; also called 12 AA Peptide
T3 peptide: LVLDLSMQEALS
Protocol: as §1

[4] = target: T4, 11 AA stub (a.a. 293-303 of SEQ ID NO: 247) (human); test: SPR, mAb captured, peptide injected
T4 peptide: VLDLSMQEALS
Protocol: as §1

[5] = target: T5, 10 AA stub (a.a. 294-303 of SEQ ID NO: 247) (human); test: SPR, mAb captured, peptide injected
T5 peptide: LDLSMQEALS
Protocol: as §1

[6] = target: T6, 9 AA stub (a.a. 295-303 of SEQ ID NO: 247) (human); test: SPR, mAb captured, peptide injected
T6 peptide: DLSMQEALS
Protocol: as §1

[7] = target: T7, 7 AA stub (a.a. 297-303 of SEQ ID NO: 247) (human); test: SPR, mAb captured, peptide injected
T7 peptide: SMQEALS
Protocol: as §1

[8] = target: T8, MSNW10, recombinant full length human MSLN (human, UniProt Q13421 296-598); test: SPR, recombinant full-length human MSLN
T8 construct: also called MSNW10.002; FL-MSLN
T8 sequence (Q13421 other isoform, or with tags, fused parts or gaps limits assumed): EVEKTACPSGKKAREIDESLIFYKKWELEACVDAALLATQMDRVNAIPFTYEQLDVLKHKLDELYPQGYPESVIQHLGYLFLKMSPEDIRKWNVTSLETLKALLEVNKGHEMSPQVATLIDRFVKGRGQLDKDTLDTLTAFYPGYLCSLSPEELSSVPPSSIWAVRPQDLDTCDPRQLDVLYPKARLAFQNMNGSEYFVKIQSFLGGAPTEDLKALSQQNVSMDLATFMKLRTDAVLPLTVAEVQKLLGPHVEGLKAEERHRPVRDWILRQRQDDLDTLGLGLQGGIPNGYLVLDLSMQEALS

[9] = target: T9, MSNW11, recombinant soluble (shed) MSLN lacking the C-terminal 7 AAs (human, UniProt Q13421 296-591); test: H838 cell binding with shed MSLN (MSNW11) added
T9 construct: domain: soluble MSLN lacking the C-terminal 7 AAs; also called MSNW11.002; soluble MSLN
T9 sequence (Q13421 other isoform, or with tags, fused parts or gaps limits assumed): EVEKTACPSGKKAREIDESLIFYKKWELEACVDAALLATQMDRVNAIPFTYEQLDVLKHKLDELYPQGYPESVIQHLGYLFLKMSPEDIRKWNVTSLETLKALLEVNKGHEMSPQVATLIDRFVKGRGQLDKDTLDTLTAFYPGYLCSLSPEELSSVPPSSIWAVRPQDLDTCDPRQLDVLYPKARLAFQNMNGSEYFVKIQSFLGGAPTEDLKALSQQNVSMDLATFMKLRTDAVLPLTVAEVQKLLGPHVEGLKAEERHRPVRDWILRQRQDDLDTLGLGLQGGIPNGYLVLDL
Excerpt: Table 16 lists the immunization campaigns, antigens used, and number of clones returned at each stage of screening. Clones from which antibody sequences were successfully recovered were first screened for binding to recombinant full length human MSLN (MSNW10) and H838 cells that express MSLN on the cell surface. Binders were further screened for binding to cells in the presence of recombinant soluble MSLN lacking the C-terminal 7 AAs (MSNW11). This form of recombinant MSLN represented the product of cleavage at the closest cleavage site to the C-terminus known at the time, therefore, it theoretically represented the longest form of shed MSLN. The final concentration of shed MSLN in the assays was 100 nM.

[10] = target: T10, 8 AA stub (a.a. 296-303 of SEQ ID NO: 247) (human); test: competition of OVCAR8 cell binding by the peptide
T10 construct: also called 8 AA Peptide; peptide of the last 8 C-terminal amino acids
T10 peptide: LSMQEALS

[11] = target: T11, human MSLN on the cell surface (human, UniProt Q13421 296-598); test: high content imaging, surface staining of OVCAR8 cells
T11 construct: on cells stands the processed GPI-anchored 40 kDa MSLN; also called membrane MSLN; MSLN on H838, OVCAR-8 (OVCAR8), OVCAR-8 K1/C8, SK-OV-3 cells
Protocol: OVCAR8 cells were cultured in RPMI 1640 medium supplemented with 10% FCS, 1% L-glutamine and 1% Gentamycin and seeded in Greiner CELLSTAR plate one day before experiment. 24 h after seeding, antibody mixture was prepared by diluting MSLN and control antibodies in Table 21 in full media containing CellMask™ Deep Red Plasma Membrane Stain (ThermoFisher, C10046) in 12 concentrations each with 3 folds dilution starting from 20 μg/ml and 20 μl of which were added directly to the cells in 20 μl. Antibodies were allowed for binding to the cell surface for 2h inside the incubator (37°) C. and the surface bound antibodies were fixed for 15 min at RT by directly adding 30 ul of 10% Formaldehyde (04018-1, Polysciences). Afterwards residual Formaldehyde was removed by washing the cells twice with PBS and the primary antibodies were stained with secondary antibodies (Alexa Fluor 488 goat anti-human IgG, Invitrogen, A11013) complemented with Hoechst 33342 (H3570, ThermoFisher) and HCS CellMask™ Deep Red Stain (ThermoFisher, H32721) in PBS for 1h at RT. After removing unbound antibodies and other dyes by washing the cells 3 times with PBS cells were imaged on the CellVoyager 7000 (Yokogawa, Tokyo, Japan) using a 40×/0.95 objective. Of each well, 9 fields were imaged. Image analysis was performed with Acapella (PerkinElmer, Waltham, MA, USA) and the results stored in Phaedra (OpenAnalytics, Antwerp, Belgium). Data analysis was done in R (www.r-project.org).
The data was then fitted using the four-parameter logistic using least-squares regression, keeping the lower boundary fixed at 0.

[12] = target: T3, 12 AA stub region peptide LVLDLSMQEALS; test: SPR
[13] = target: T8, MSNW10, recombinant full length human …; test: SPR, additional experiments
[14] = target: T12, CD3 epsilon on human T-cells (human, UniProt P07766 23-207); test: cell-based or functional assay
T12 sequence (P07766 23-207 limits assumed): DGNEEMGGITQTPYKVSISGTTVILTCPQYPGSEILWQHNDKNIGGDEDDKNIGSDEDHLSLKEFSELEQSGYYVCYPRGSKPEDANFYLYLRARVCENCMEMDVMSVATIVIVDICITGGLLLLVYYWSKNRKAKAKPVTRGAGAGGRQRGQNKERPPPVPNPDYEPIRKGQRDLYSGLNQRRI

[15] = target: T12, CD3 epsilon on human T-cells; test: T-cell binding assay, FIG. 15
[16] = target: T12, CD3 epsilon on human T-cells; test: T cell binding

B1: MSLNB570 (antibody, V domains shown)
VH: QVQLQQSGPGLVKPSQTLSLTCAISGDSVSSTSVAWNWIRQSPSGGLEWLGRTYYRSKWYNDYALSVKSRMTINPDTASNQFSLQLNSVTPEDTAVYYCSRGIVGALDYWGQGTLVTVSS
VL: DIVMTQTPLSLPVTPGGPASISCRSSQSLMYSNGYNHLDWYLQKPGQSPQFLIHLGSNRVSGVPDRFSGSGSGTDFTLKISRVEAEDVGVYYCMQALRTPYTFGQGTKVDIK
notes: mAb; also called MSNB570
- Kd [1]: 3.67 nM
- Kd [2]: 4.37 nM
- Kd [3]: 7.97 nM
- binding result [4]: no binding (tested: 100 nM)
- binding result [5]: no binding (tested: 100 nM)
- binding result [6]: no binding (tested: 1000 nM)
- binding result [7]: no binding (tested: 1000 nM)
- Kd [8]: 3.6 nM
- binding result [9]: no binding (tested: 100 nM)
- binding result [10]: no binding
- IC50 [11]: 0.0728 µg/mL
- Maximum Value (arbitrary units) [11]: 1.39e+07 arbitrary units

B2: MSNB459 (antibody, V domains shown)
VH: EVQLVQSGPGLVKPSQTLSLTCAISGDSVSSNSVAWNWIRQSPSRGLEWLGRTYYRSKWYNDYALSVKSRITINPDTSKNQFSLQLNSVTPEDTAVYYCARGVVGAVDYWGQGTLVTVSS
VL: DIVMTQSPLSLPVTPGEPASISCRSSQNLLYSNGYNSLDWYLQKPGQSPQLLIYLGSNRASGVPDRFSGSGSGTDFTLKISRVEAEDVGVYYCMQGLRTPLTFGGGTKVEIK
notes: mAb
- Kd [8]: 3.5 nM
- binding result [9]: no binding (tested: 100 nM)

B3: MSLNB571 (antibody, V domains shown)
VH: QVQLQQSGPGLVKPSQTLSLTCAISGDSVSSTSVAWNWIRQSPSGGLEWLGRIYYRSKWYNDYALSVKSRMTINPDTASNQFSLQLNSVTPEDTAVYYCSRGIVGALDYWGQGTLVTVSS
VL: DIVMTQTPLSLPVTPGGPASISCRSSQSLMYSNGYNHLDWYLQKPGQSPQFLIHLGSNRVSGVPDRFSGSGSGTDFTLKISRVEAEDVGVYYCMQALRTPYTFGQGTKVDIK
notes: mAb; also called MSNB571
- binding result [12]: binds
- Kd [8]: 1.8 nM
- binding result [9]: no binding (tested: 100 nM)
- IC50 [11]: 0.0735 µg/mL
- Maximum Value (arbitrary units) [11]: 1.46e+07 arbitrary units

B4: MSLNB592 (antibody, V domains shown)
VH: QVQLQQSGPGLVKPSQTLSLTCAISGDSVSSTSVAWNWIRQSPSGGLEWLGRTYYRSKWYNDYALSVKSRMTINPDTASNQFSLQLNSVTPEDTAVYYCSRGIVGALDYWGQGTLVTVSS
VL: DIVMTQSPLSLPVTPGEPASISCRSSQSLMYSNGYNHLDWYLQKPGQSPQFLIHLGSNRASGVPDRFSGSGSGTDFTLKISRVEAEDVGVYYCMQALRTPYTFGQGTKVEIK
notes: mAb; also called MSNB592
- Kd [13]: 0.9 nM
- binding result [9]: no binding (tested: 100 nM)

B5: MNC3B199 (bispecific antibody, V domains shown, not shown: a dimerising Fc or GST; small tags and cut ends)
VH 1: QVQLVESGPGQVKPSQTLSLTCAISGDSVSSNSAAWNWIRQSPSRGLEWLGRTYYRSKWYNDYAVSVKSRITINPDTSKNQFSLQLNSVTPEDTAVYYCARRDYSSGGFDYWGQGTTVTVSS
VL 1: not shown
VH 2: QVQLVQSGAEVKKPGSSVKVSCKASGYTFTRSTMHWVKQAPGQGLEWMGYINPSSAYTNYNQKFQGRVTLTADKSTSTAYMELSSLRSEDTAVYYCASPQVHYDYAGFPYWGQGTLVTVSS
VL 2: EIVLTQSPATLSASPGERVTLSCSASSSVSYMNWYQQKPGQAPRRLIYDSSKLASGVPARFSGSGSGRDYTLTISSLEPEDFAVYYCQQWSRNPPTFGGGTKVEIK
- AC90 [nM], cytotoxicity, 1:1 E:T, 72 hours [14]: 7.32 nM
- Max. Activity, cytotoxicity, 1:1 E:T, 72 hours [14]: 85%
- qAC50 [nM], cytotoxicity, 1:1 E:T, 72 hours [14]: 1.19 nM

B6: CD3W245 HL formatted in the 2+1 format (bispecific antibody)
scFv: EVQLVESGGGLVKPGGSLRLSCAASGFTFSRYNMNWVRQAPGKGLEWVSSISTSSNYIYYADSVKGRFTFSRDNAKNSLDLQMSGLRAEDTAIYYCTRGWGPFDYWGQGTLVTVSSGGSEGKSSGSGSESKSTGGSDIQMTQSPSSLSASVGDRVTITCRARQSIGTAIHWYQQKPGKAPKLLIKYASESISGVPSRFSGSGSGTDFTLTISSLQPEDFATYYCQQSGSWPYTFGQGTKLEIK
VH: QVQLVESGPGQVKPSQTLSLTCAISGDSVSSNSAAWNWIRQSPSRGLEWLGRTYYRSKWYNDYAVSVKSRITINPDTSKNQFSLQLNSVTPEDTAVYYCARRDYSSGGFDYWGQGTTVTVSS
VL: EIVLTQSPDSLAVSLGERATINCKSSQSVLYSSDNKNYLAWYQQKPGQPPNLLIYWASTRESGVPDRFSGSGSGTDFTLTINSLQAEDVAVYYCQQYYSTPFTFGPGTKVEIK
notes: two MSLN targeting (MSNB457) Fabs and one CD3 scFv set between Fab and Fc of one heavy chain; also called CD3W245 HL 2+1
- EC50 [15]: 44 nM

B7: CD3B2030-N106A (scFv, V domains shown)
VH: QVQLVQSGAEVKKPGSSVKVSCKASGYTFTRSTMHWVKQAPGQGLEWIGYINPSSAYTNYNQKFQGRVTLTADKSTSTAYMELSSLRSEDTAVYYCASPQVHYDYAGFPYWGQGTLVTVSS
VL: EIVLTQSPATLSASPGERVTLSCSASSSVSYMNWYQQKPGQAPRRWIYDSSKLASGVPARFSGSGSGRDYTLTISSLEPEDFAVYYCQQWSRNPPTFGGGTKVEIK
- EC50 [16]: 50 to 100 nM

Next, values leading:

- EC50 [16]: 50 to 100 nM
B8: CD3B2051-N106A (scFv, V domains shown)
VH: QVQLVQSGAEVKKPGSSVKVSCKASGYTFTRSTMHWVKQAPGQGLEWMGYINPSSAYTNYNQKFQGRVTLTADKSTSTAYMELSSLRSEDTAVYYCASPQVHYDYAGFPYWGQGTLVTVSS
VL: EIVLTQSPATLSASPGERVTLSCSASSSVSYMNWYQQKPGQAPRRLIYDSSKLASGVPARFSGSGSGRDYTLTISSLEPEDFAVYYCQQWSRNPPTFGGGTKVEIK
notes: CD3 targeting scFv

- Kd [13]: 1.2 nM
- binding result [9]: no binding (tested: 100 nM)
B9: MSLNB590 (antibody, V domains shown)
VH: QVQLQQSGPGLVKPSQTLSLTCAISGDSVSSTRAAWNWIRQSPSRGLEWLGRTYYRSKWYNDYTVSVKSRITINPDTSKNQFSLHLNSVTPEDSAVYFCARGNVGRVDFWGQGTLVTVSS
VL: EIVMTQSPLSLPVTPGEPASISCRSSQSLLHSDGYNYLDWYLQKPGQSPQLLIYLGSNRASGVPDRFSGSGSDTDFTLKISRVEAEDVGVYYCMQGLRTPLTFGPGTKLEIK
notes: mAb; also called MSNB590

- Kd [8]: 3.7 nM
- binding result [9]: no binding (tested: 100 nM)
B10: MSNB133 (antibody, V domains shown)
VH: QVQLQQSGPGLVKPSQTLSLTCAISGDSVSSNRVAWNWIRQSPSRGLEWLGRTYYRSKWYNDFALSVKSRININADTSKSQFSLQLNSVTPEDTAVYYCARGIVGALDYWGQGTTVTVSS
VL: DIVMTQSPLSLPVTPGEPASISCRSSQSLLFSNGYNSLDWYLQKPGQSPQLLIYLGSNRASGVPDRFSGSESGTDFTLKISRVEAEDVGVYYCMQALQTPFTFGPGTKLEIK
notes: mAb
